T1: FcγRIIb (human, UniProt P31994 43-217)
T1 construct: extracellular domain; Soluble extracellular domain with C-terminal His tag, used as analyte in Biacore; also called FcgRIIb; 2b; not shown: His tag attached to the C terminus
T1 sequence (looked up): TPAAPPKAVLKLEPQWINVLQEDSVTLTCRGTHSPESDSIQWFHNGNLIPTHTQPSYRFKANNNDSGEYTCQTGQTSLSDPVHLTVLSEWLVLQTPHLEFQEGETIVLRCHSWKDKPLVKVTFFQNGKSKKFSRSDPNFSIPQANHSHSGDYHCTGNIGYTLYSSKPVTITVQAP

T2: FcγRIIa R (human, UniProt P12318 34-217)
T2 construct: extracellular domain; Soluble extracellular domain with C-terminal His tag, expressed in FreeStyle293 cells; also called FcgRIIa R; FcγRIIa type R; not shown: His tag attached to the C terminus
T2 sequence (looked up): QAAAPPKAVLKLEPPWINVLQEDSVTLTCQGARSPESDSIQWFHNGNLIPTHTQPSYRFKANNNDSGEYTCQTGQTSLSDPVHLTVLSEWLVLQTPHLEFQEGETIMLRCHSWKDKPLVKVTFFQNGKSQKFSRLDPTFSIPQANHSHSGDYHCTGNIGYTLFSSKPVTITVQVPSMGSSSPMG


How the values were obtained:
[1] = target: T3, FcγRIa (human, UniProt P12314 16-292); assay: SPR (Biacore); He/Con_1a divided by He/Con_2b (FcγRIa against FcγRIIb)
T3 construct: extracellular domain; Soluble extracellular domain with C-terminal His tag, used as analyte in Biacore; also called FcgRI; 1a; not shown: His tag attached to the C terminus
T3 sequence (P12314 16-292): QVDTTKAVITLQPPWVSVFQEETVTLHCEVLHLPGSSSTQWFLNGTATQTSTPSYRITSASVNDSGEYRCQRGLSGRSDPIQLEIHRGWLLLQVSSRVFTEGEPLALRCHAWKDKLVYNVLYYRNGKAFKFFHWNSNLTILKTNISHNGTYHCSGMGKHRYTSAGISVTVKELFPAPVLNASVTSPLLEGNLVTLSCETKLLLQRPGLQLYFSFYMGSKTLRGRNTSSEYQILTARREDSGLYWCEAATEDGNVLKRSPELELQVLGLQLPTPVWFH

[2] = target: T1, FcγRIIb; assay: SPR (Biacore), antibody captured on antigen peptide, FcγR as analyte; relative to GpH7-A5/GpH7-B3/GpL16-k0 = 100
[3] = target: T3, FcγRIa; assay: as above
[4] = target: T2, FcγRIIa R; assay: SPR (Biacore), antibody captured via antigen peptide, FcγRIIa R as analyte; heterodimerized antibody
Procedure: Analysis of interaction between objective antibody and the FcγR was carried out using Biacore T100 (GE Healthcare). HBS-EP+ (GE Healthcare) was used as the running buffer, and the measurement temperature was set to 25° C. Chips produced by immobilizing the antigen peptide by the amine coupling method to a Series S Sencor Chip CM5 (GE Healthcare), or alternatively, chips produced by allowing preliminarily biotinylated antigen peptides to interact with and immobilize onto a Series S Sensor Chip SA (certified) (GE Healthcare) were used. Antibodies of interest were captured onto an antigen peptide-immobilized chip, and allowed to interact to each FcγR diluted with running buffer. To regenerate and repeatedly use the chip, the antibodies captured on the chip were washed off by reacting 10 mM glycine-HCl, pH 1.5.

He/Con_2aR [4]	Binder	also measured
–	GpH7-A5/GpH7-B3 variant G237_02A/GpL16-k0 (antibody, human IgG1, kappa, Heterodimerized IgG1; mutation in the GpH7-B3 H chain only; also called He Ab) heavy 1: not shown heavy 2: not shown light: DIVMTQSPLSLPVTPGEPASISCQASESLVHSNRNTYLHWYLQKPGQSPQLLIYKVSNRFSGVPDRFSGSGSGTDFTLKISRVEAEDVGVYYCSQNTHVPPTFGQGTKVEIERTVAAPSVFIFPPSDEQLKSGTASVVCLLNNFYPREAKVQWKVDNALQSGNSQESVTEQDSKDSTYSLSSTLTLSKADYEKHKVYACEVTHQGLSSPVTKSFNRGEC	Ia/IIb He_1a/2b [1]: 0.73 ratio; He/Con_2b [2]: 124 % of control; He/Con_1a [3]: 90.3 % of control
111 % of control (GpH7-A5/GpH7-B3/GpL16-k0 = 100)	GpH7-A5/GpH7-B3 variant S267_07I/GpL16-k0 (antibody, human IgG1, kappa, heterodimerized; mutation in one H chain only; also called He Ab) heavy 1: not shown heavy 2: not shown light: DIVMTQSPLSLPVTPGEPASISCQASESLVHSNRNTYLHWYLQKPGQSPQLLIYKVSNRFSGVPDRFSGSGSGTDFTLKISRVEAEDVGVYYCSQNTHVPPTFGQGTKVEIERTVAAPSVFIFPPSDEQLKSGTASVVCLLNNFYPREAKVQWKVDNALQSGNSQESVTEQDSKDSTYSLSSTLTLSKADYEKHKVYACEVTHQGLSSPVTKSFNRGEC	–
106 % of control (GpH7-A5/GpH7-B3/GpL16-k0 = 100)	GpH7-A5/GpH7-B3 variant T335_19Q/GpL16-k0 (antibody, human IgG1, kappa, heterodimerized; mutation in one H chain only; also called He Ab) heavy 1: not shown heavy 2: not shown light: DIVMTQSPLSLPVTPGEPASISCQASESLVHSNRNTYLHWYLQKPGQSPQLLIYKVSNRFSGVPDRFSGSGSGTDFTLKISRVEAEDVGVYYCSQNTHVPPTFGQGTKVEIERTVAAPSVFIFPPSDEQLKSGTASVVCLLNNFYPREAKVQWKVDNALQSGNSQESVTEQDSKDSTYSLSSTLTLSKADYEKHKVYACEVTHQGLSSPVTKSFNRGEC	–
–	GpH7-A5/GpH7-B3 variant G236_09D/GpL16-k0 (antibody, human IgG1, kappa, Heterodimerized IgG1; mutation in the GpH7-B3 H chain only; also called He Ab) heavy 1: not shown heavy 2: not shown light: DIVMTQSPLSLPVTPGEPASISCQASESLVHSNRNTYLHWYLQKPGQSPQLLIYKVSNRFSGVPDRFSGSGSGTDFTLKISRVEAEDVGVYYCSQNTHVPPTFGQGTKVEIERTVAAPSVFIFPPSDEQLKSGTASVVCLLNNFYPREAKVQWKVDNALQSGNSQESVTEQDSKDSTYSLSSTLTLSKADYEKHKVYACEVTHQGLSSPVTKSFNRGEC	Ia/IIb He_1a/2b [1]: 0.58 ratio; He/Con_2b [2]: 167 % of control; He/Con_1a [3]: 96.6 % of control
109 % of control (GpH7-A5/GpH7-B3/GpL16-k0 = 100)	GpH7-A5/GpH7-B3 variant T335_20W/GpL16-k0 (antibody, human IgG1, kappa, heterodimerized; mutation in one H chain only; also called He Ab) heavy 1: not shown heavy 2: not shown light: DIVMTQSPLSLPVTPGEPASISCQASESLVHSNRNTYLHWYLQKPGQSPQLLIYKVSNRFSGVPDRFSGSGSGTDFTLKISRVEAEDVGVYYCSQNTHVPPTFGQGTKVEIERTVAAPSVFIFPPSDEQLKSGTASVVCLLNNFYPREAKVQWKVDNALQSGNSQESVTEQDSKDSTYSLSSTLTLSKADYEKHKVYACEVTHQGLSSPVTKSFNRGEC	–
150 % of control (GpH7-A5/GpH7-B3/GpL16-k0 = 100)	GpH7-A5/GpH7-B3 variant V266_06M/GpL16-k0 (antibody, human IgG1, kappa, heterodimerized; mutation in one H chain only; also called He Ab) heavy 1: not shown heavy 2: not shown light: DIVMTQSPLSLPVTPGEPASISCQASESLVHSNRNTYLHWYLQKPGQSPQLLIYKVSNRFSGVPDRFSGSGSGTDFTLKISRVEAEDVGVYYCSQNTHVPPTFGQGTKVEIERTVAAPSVFIFPPSDEQLKSGTASVVCLLNNFYPREAKVQWKVDNALQSGNSQESVTEQDSKDSTYSLSSTLTLSKADYEKHKVYACEVTHQGLSSPVTKSFNRGEC	–
106 % of control (GpH7-A5/GpH7-B3/GpL16-k0 = 100)	GpH7-A5/GpH7-B3 variant T335_18N/GpL16-k0 (antibody, human IgG1, kappa, heterodimerized; mutation in one H chain only; also called He Ab) heavy 1: not shown heavy 2: not shown light: DIVMTQSPLSLPVTPGEPASISCQASESLVHSNRNTYLHWYLQKPGQSPQLLIYKVSNRFSGVPDRFSGSGSGTDFTLKISRVEAEDVGVYYCSQNTHVPPTFGQGTKVEIERTVAAPSVFIFPPSDEQLKSGTASVVCLLNNFYPREAKVQWKVDNALQSGNSQESVTEQDSKDSTYSLSSTLTLSKADYEKHKVYACEVTHQGLSSPVTKSFNRGEC	–
110 % of control (GpH7-A5/GpH7-B3/GpL16-k0 = 100)	GpH7-A5/GpH7-B3 variant T335_09D/GpL16-k0 (antibody, human IgG1, kappa, heterodimerized; mutation in one H chain only; also called He Ab) heavy 1: not shown heavy 2: not shown light: DIVMTQSPLSLPVTPGEPASISCQASESLVHSNRNTYLHWYLQKPGQSPQLLIYKVSNRFSGVPDRFSGSGSGTDFTLKISRVEAEDVGVYYCSQNTHVPPTFGQGTKVEIERTVAAPSVFIFPPSDEQLKSGTASVVCLLNNFYPREAKVQWKVDNALQSGNSQESVTEQDSKDSTYSLSSTLTLSKADYEKHKVYACEVTHQGLSSPVTKSFNRGEC	–
110 % of control (GpH7-A5/GpH7-B3/GpL16-k0 = 100)	GpH7-A5/GpH7-B3 variant S337_14T/GpL16-k0 (antibody, human IgG1, kappa, heterodimerized; mutation in one H chain only; also called He Ab) heavy 1: not shown heavy 2: not shown light: DIVMTQSPLSLPVTPGEPASISCQASESLVHSNRNTYLHWYLQKPGQSPQLLIYKVSNRFSGVPDRFSGSGSGTDFTLKISRVEAEDVGVYYCSQNTHVPPTFGQGTKVEIERTVAAPSVFIFPPSDEQLKSGTASVVCLLNNFYPREAKVQWKVDNALQSGNSQESVTEQDSKDSTYSLSSTLTLSKADYEKHKVYACEVTHQGLSSPVTKSFNRGEC	–
108 % of control (GpH7-A5/GpH7-B3/GpL16-k0 = 100)	GpH7-A5/GpH7-B3 variant Y300_04F/GpL16-k0 (antibody, human IgG1, kappa, heterodimerized; mutation in one H chain only; also called He Ab) heavy 1: not shown heavy 2: not shown light: DIVMTQSPLSLPVTPGEPASISCQASESLVHSNRNTYLHWYLQKPGQSPQLLIYKVSNRFSGVPDRFSGSGSGTDFTLKISRVEAEDVGVYYCSQNTHVPPTFGQGTKVEIERTVAAPSVFIFPPSDEQLKSGTASVVCLLNNFYPREAKVQWKVDNALQSGNSQESVTEQDSKDSTYSLSSTLTLSKADYEKHKVYACEVTHQGLSSPVTKSFNRGEC	–
108 % of control (GpH7-A5/GpH7-B3/GpL16-k0 = 100)	GpH7-A5/GpH7-B3 variant T335_04F/GpL16-k0 (antibody, human IgG1, kappa, heterodimerized; mutation in one H chain only; also called He Ab) heavy 1: not shown heavy 2: not shown light: DIVMTQSPLSLPVTPGEPASISCQASESLVHSNRNTYLHWYLQKPGQSPQLLIYKVSNRFSGVPDRFSGSGSGTDFTLKISRVEAEDVGVYYCSQNTHVPPTFGQGTKVEIERTVAAPSVFIFPPSDEQLKSGTASVVCLLNNFYPREAKVQWKVDNALQSGNSQESVTEQDSKDSTYSLSSTLTLSKADYEKHKVYACEVTHQGLSSPVTKSFNRGEC	–
108 % of control (GpH7-A5/GpH7-B3/GpL16-k0 = 100)	GpH7-A5/GpH7-B3 variant T335_08L/GpL16-k0 (antibody, human IgG1, kappa, heterodimerized; mutation in one H chain only; also called He Ab) heavy 1: not shown heavy 2: not shown light: DIVMTQSPLSLPVTPGEPASISCQASESLVHSNRNTYLHWYLQKPGQSPQLLIYKVSNRFSGVPDRFSGSGSGTDFTLKISRVEAEDVGVYYCSQNTHVPPTFGQGTKVEIERTVAAPSVFIFPPSDEQLKSGTASVVCLLNNFYPREAKVQWKVDNALQSGNSQESVTEQDSKDSTYSLSSTLTLSKADYEKHKVYACEVTHQGLSSPVTKSFNRGEC	–
110 % of control (GpH7-A5/GpH7-B3/GpL16-k0 = 100)	GpH7-A5/GpH7-B3 variant Y296_20W/GpL16-k0 (antibody, human IgG1, kappa, heterodimerized; mutation in one H chain only; also called He Ab) heavy 1: not shown heavy 2: not shown light: DIVMTQSPLSLPVTPGEPASISCQASESLVHSNRNTYLHWYLQKPGQSPQLLIYKVSNRFSGVPDRFSGSGSGTDFTLKISRVEAEDVGVYYCSQNTHVPPTFGQGTKVEIERTVAAPSVFIFPPSDEQLKSGTASVVCLLNNFYPREAKVQWKVDNALQSGNSQESVTEQDSKDSTYSLSSTLTLSKADYEKHKVYACEVTHQGLSSPVTKSFNRGEC	–
108 % of control (GpH7-A5/GpH7-B3/GpL16-k0 = 100)	GpH7-A5/GpH7-B3 variant T335_16H/GpL16-k0 (antibody, human IgG1, kappa, heterodimerized; mutation in one H chain only; also called He Ab) heavy 1: not shown heavy 2: not shown light: DIVMTQSPLSLPVTPGEPASISCQASESLVHSNRNTYLHWYLQKPGQSPQLLIYKVSNRFSGVPDRFSGSGSGTDFTLKISRVEAEDVGVYYCSQNTHVPPTFGQGTKVEIERTVAAPSVFIFPPSDEQLKSGTASVVCLLNNFYPREAKVQWKVDNALQSGNSQESVTEQDSKDSTYSLSSTLTLSKADYEKHKVYACEVTHQGLSSPVTKSFNRGEC	–
105 % of control (GpH7-A5/GpH7-B3/GpL16-k0 = 100)	GpH7-A5/GpH7-B3 variant T335_06M/GpL16-k0 (antibody, human IgG1, kappa, heterodimerized; mutation in one H chain only; also called He Ab) heavy 1: not shown heavy 2: not shown light: DIVMTQSPLSLPVTPGEPASISCQASESLVHSNRNTYLHWYLQKPGQSPQLLIYKVSNRFSGVPDRFSGSGSGTDFTLKISRVEAEDVGVYYCSQNTHVPPTFGQGTKVEIERTVAAPSVFIFPPSDEQLKSGTASVVCLLNNFYPREAKVQWKVDNALQSGNSQESVTEQDSKDSTYSLSSTLTLSKADYEKHKVYACEVTHQGLSSPVTKSFNRGEC	–
–	GpH7-A5/GpH7-B3 variant G237_04F/GpL16-k0 (antibody, human IgG1, kappa, Heterodimerized IgG1; mutation in the GpH7-B3 H chain only; also called He Ab) heavy 1: not shown heavy 2: not shown light: DIVMTQSPLSLPVTPGEPASISCQASESLVHSNRNTYLHWYLQKPGQSPQLLIYKVSNRFSGVPDRFSGSGSGTDFTLKISRVEAEDVGVYYCSQNTHVPPTFGQGTKVEIERTVAAPSVFIFPPSDEQLKSGTASVVCLLNNFYPREAKVQWKVDNALQSGNSQESVTEQDSKDSTYSLSSTLTLSKADYEKHKVYACEVTHQGLSSPVTKSFNRGEC	Ia/IIb He_1a/2b [1]: 0.55 ratio; He/Con_2b [2]: 149 % of control; He/Con_1a [3]: 81.5 % of control
